Experimental data from the supplement of paper PMC12636428.

Tested on: Saccharomyces cerevisiae
Test: transcriptional activation domain activity (GFP:mCherry ratio, weighted mean of sorted bins, harmonized to initial dataset scale) (arbitrary fluorescence ratio units); higher = stronger transcriptional activation
Details: beta-estradiol 1 µM; induction time 4 h
Summary of the method: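 Yeast diploids with a GFP reporter received barcoded protein tiles, fused to an estradiol-inducible synthetic transcription factor, at the URA3 locus. Cultures were diluted 1:5 into SC holding 1 uM beta-estradiol, incubated 4 hours at 30 °C, sorted into 8 bins on GFP:mCherry ratio, and sequenced for barcodes, with tiles under 50 reads discarded. Activation activity values come from the read-weighted mean of bin median fluorescence, averaged across barcodes and linearly placed on the initial dataset scale.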

Row | Sequence | transcriptional activation domain activity
1 | MCACRLFNQICFINKPCRIVNLSISIVYINWGMLLCVMRSDVLSLYLLIMLPV | 80000
2 | MFCLRSWIPILFFLLRTNASPIYLILFISATYFLNRPCVYCSLLLFILVVALF | 50800
3 | LNILILGSVLTDFDTLLRPETMQWNPPLGVWLIWWMQWQMFIPLLILQFLNLY | 55400
4 | RLCPRLGLVELFFKNSAELSKVLKALGAAAATTLCTVVFPGYSHRLSFLQWYP | 62400
5 | NMGEQQKFTSPQHIVHKAKFLSNAADSEYSILSNIIYQDTLSNKIPIDILYSN | 76900
6 | MMRCRFGVVFRILPYYLFVFPQIFIYLLLDSFDVQSSLPLLLLYTSLIILVTW | 56900
7 | RKKRRSTRRSRSREESSRRRGDDRRRNHSRDRSTTSRRRSRKSRSPSRDRSSR | 32300
8 | RIILINPLICGATLMLVFAAIGGGWRNVAIEIFVDHGYIRLLFILCTIPQIWL | 56800
9 | VLRLFNDVWAVTLTQLSILALVGVYLILPYYNVLQCCLIRQDVVLLYLPAFLV | 66500
10 | CRLLSSSVFLFSFFPFFLFFFYCLLVFFAWFLILRGCFVVHCLCKFGYDWTGG | 30300
11 | IAYPFFFIHSILLNLYYALLPYAFYLYLYIYIFLSFFSRLTVSSSFIPPLLSP | 65000
12 | FFSSFLFFSFLFFSVVLSFLLFFSLLFSSPLFFPFLPFPSLSFPSLPSSPLLF | 35200
13 | HEDQKLREDQEARLRAVEEFEAVQMGLSVKTGASARVIGRQGGRIVAEEEQHV | 26100
14 | AEAQEGRKKDAAAAAEKKEEESPKKEEESAAGEEKQAAPKKKPKKLERRGGAA | 41300
15 | GGGSEERGGRGRQEGGKDREAGGRERGSAGEREETEGGTGAEGGGGGERRQGE | 32300
16 | MEYLIGHMEIYSVHFLHFCFFLRFLIFFFPLFFFFSYFSFHSYIYTFFFLEII | 31800
17 | KGGASPEDASAQSGGSRSKEAKETGSSPTGGKVGNSGGKSSSSSGGPEEKNKD | 35600
18 | AANFHDTHGFGSMPQHLKKKPKAEGEGAGKAEEVKAEVSATAEAEESATAKAE | 34800
19 | YFYGLERRHVTCSQLAYYLCDKALTPMFCGGRVGNDCFDPWGRLLTYWCFLPL | 77300
20 | VNGDLFEADGCTIQWLLDNSHGLIFAVAYPRILTLTYVPALLQTIKTLFLSLF | 44000
21 | LVLQTDFLLMVERVDVCLEFLEAHRDFREVEIYLLRFQQCLTRAMTLIKMFFV | 51900

Row | Sequence | transcriptional activation domain activity
22 | FAHIQPGLNVPIRAIMLCYLFNVAFGLLYLGPSVAFGAYISSCTILLNVSYAF | 57100
23 | MYYIIISYDYFLIILIPIIDTCYPFKDFCIIFFIYPLLLHYAIFYYLRLVFIY | 45100
24 | TEAPPAPAPEGGDDEEDGEGDEGGEAAAGGKKKKKKKKPAEKKVPEAPAPKKG | 15400
25 | TRQYIINILFGIMTVENFDLEDIIYFYMFIARNLPKYPQHIMLPGTSLHQVLV | 54100
26 | AVAPASTPVATEASPAGAPDAKGKKKEKAAAGANADAAGGKKGKGGAQAAPAT | 49500
27 | MFRPYSKFVLPSFFDIVLIYIFQEFGREALIWCQLCLQRVLPFLGLYHMGEML | 38500
28 | MDFFYIFNYLISYITNRLMILLYYFTHTHFLLFPLSLFYYYFSCSCFFLLFPP | 36500
29 | LKSKALDAKVPIGLFTVLFFHPFLFPFCSLFPALFAPSFLFLFPLCFVTHFFL | 52400
30 | MPLSPPLYFIVFLYLQFQLYAYFICYFYILLSFYSSTHPVLSFYPLYYPFYLL | 61300
31 | AAEEEEAEAQAEKEEAEAEEAEAEEELEEAQAEEAEAEEAEAEEAEAVRGAMG | < 6570
32 | VVDYHTTYRRMIIVCLQSVLGLFRDMVEQFLGVIYTIYVLIRVFVVFPVWVIY | 61200
33 | MPVLPKSSSTKRAGAPKAKGAVRAKSGCYTCRIRRKKCDENPDDAGQCQTCVR | 36600
34 | MSRLSIYVALLLLESICICWRGWIAPRHVAMESVQINFKTGRFLVYFMFPIKA | 32000
35 | MSIAWLCYSSALCQGLRNTIFPSLNIFLMDPLSEWTARQWLFYLVWLLTIVWK | 52800
36 | QRKLLWMCVHNIESLVCLGTGRGISSKITDNMLGMLISTKIFNLAEAGLRLEI | 67000
37 | AAATTADAKPASSAADKASSSVAAASAGQATASTDSGTAKAEKKKKGKAAAVA | 8920
38 | AKKESKADGEEKPKAARGKKRKVDEEAEEEEGAEKPASKKAKPVSKAKSAAGS | 17000
39 | MVSMQLSKLFIFSRVRRGGFFFCPCFSLVFLLFLFCIFFFHHFFSFHISFYLP | 41400
40 | EPERKQSRRRQSRGRGRKGVADSDTESVPRSDVSASGGRRNRQRQRQKGGKQQ | 48900
41 | SLVDFHKFFKWLLLKVVKGLNKLRNLHNERPKELQTNEMEHLLNLMKIVRFFA | 46500
42 | TLRQELPNFFIFGLNNTSIYSSNILLWEPRYTGLQIRGKWSYLMLAATIRWSL | 54000

Row | Sequence | transcriptional activation domain activity
43 | MSFYFNFYFPICLFFIFIFIVYFLFFIFYLFYFVVYFFLFLLAFIFVFFSVVY | 41700
44 | SLPSTTPAGAPPTDAAKPAGGLFGNTSAQASTGSSGLFGNAAKPATTSASSAQ | 16100
45 | MLSVRVVVLFAGHLCFLSSSYVLIRCFGDGFNSFVSFRFSSVWWWYLHTLCTH | 87900
46 | MLYSFSFTTIGYILAFNPPDGRFFYLMLLGLFVQHLIVYVILFVLILLPICVY | 34300
47 | YVAPGVASPIPVNYIWTPFASWRLVAILISLLSLYSWGMLIFFFWFLFWLLLY | < 6570
48 | LHEQLESLMLRRLKRDVLTSLPTKSERILRVEMSALQTHFYKNILTKNFQALV | 74100
49 | ERKRRAKQKEKEERKKKKKKNANSKDARQRSESSSRREKRKDEDSDDEEEEGG | 35700
50 | DPTKSVSAYWVPGGDYISPALQILMNEYLLSFCPTITLPQSLILVSKYFGFLL | 60700
51 | MRLLAYGLMSSGVLLAHVVHIWRQRGFFFATCIGLTNHNFGLLVIMNFCLFCS | 56000
52 | RLETLHKCIVTYLWLSYRFANLVGSRKVATYAKEITENVIEKTLMEFTWTRWA | 52000
53 | VLLITLILSSRINITPVVHVNPSFSTVHLIIIPHFLCNIITLLIYFIVCWGST | 56800
54 | MISWLLCFFGFRGGFFYMVFFLICTIFCFAVFGFRFLQLSTFFFHNIFLMFFF | 51900
55 | ATPAPAPGMSAAPAPAAEPVESTPKAESKPEPKPEPKAEPKAESKPAAKPAAA | 19500
56 | TPGGSSGGTGAAVASSFSVFGTGTDTVNSLRSPASANSLFSCRPTRGLITRNG | 58000
57 | GKPVIKISSFAPKLTVISSKQRPRRLSIKGSDGKDYQFLLKGHEDLRQDERVM | 58400
58 | KHLEAADGVEDDHRSTVIDQGNDELLVKWASDEGIIEKKPQGRFRLILGGGAS | 70100
59 | RLLRNLPLIAGHGPKYLQGIDKFVENEFLTVVGTWMRATKFDVLSFMIHYVTL | 65500
60 | EETKEDESSSSPADKENEKPKANTSAKQAKPRGEKKEGAASKGKGGRKQANGT | 33200
61 | PYIAYPLKPCLSGPLCELYPSTSNLWAMCLHLILVCIQVPFLLSTPFWLLLPL | 74200
62 | RSRSPEPARKKVDVKQEEPLASSKWAKDDDETLRKRESELKEGLLRKKVTASL | 34800
63 | RKPESNEKTEGANGEGHDGTRRRQSTRGRGRAGRGRGGRARGERGEKKEEGAE | 14100

Row | Sequence | transcriptional activation domain activity
64 | VSAARKRWIAMVWLFTWWIPTYLLVCCGMKRQDIRMAWREKVAICIVIFWISA | 56200
65 | IRGNMSGSEFHWTCKSLGLCGILVRCLAWYCISKMYVLPTCYRRMYCCEVYKD | 49700
66 | TIHHLKDSRSSSWTVAIDNNSNNNKVSDNQPDFVDFQELLDNDTLGNDLLETT | 61400
67 | GVEKTAEKPSEEPAEEAPEKKAEPTTEEPEPEAAKPKARGGRPKKVIAAPKED | 38300
68 | ISKTIAVLELACDVLHHNPGVFIISVLLLVIFIAFTAIWMVLFNRLWLIGHLN | 56000
69 | KSKQKERERKRARAKANEKAKAEARKRKTKDGEKKEKRKQKEREKAKGKGKER | 55000
70 | NQFSKPQVWSVGVFWWSIWLSCVWLGWWLCRLASFLAPRVLKFTIAIWMLVIY | 40800
71 | CVGFANYCHFIRFLVYVGLGAIYLMVLLGCRLSSILYHPASATEWVLLGLNLF | 63000
72 | DEEGRKRGGEREKGQHAGDERRRRRRRGEREGRERQKEGRRGPGRQSKDGKEG | 49500
73 | REYHGDTAEIKYGHKVVEIGEDKERGKARVRVEKDGEGGVKEEEVHEADYVVG | 22600
74 | MGFASFRKESFCRIGTKELMCARMCLLCPLARSLIFMVLRVVLLLSTLLLVFL | 61900
75 | MLCRLCFFVFTRAVLLYLIGLFFNLFRLCLSLRFNIFVSFVFLDFCMSFPSTL | 40200
76 | FILGLIFVFAFVWHERSMAACPLIPIKAMTAQATFVLVCTATGWASFSIWIYY | 60700
77 | GDDETDAPAKPKEGEDEKKPSSASPEDDLRSSRRSHKKREPGHRDRDRERDRD | 15300
78 | SNKRPSSGPARGGRNNGGRGNNQNANNNRGGRRGRGGAKESGAPNGQKKAGAP | 9410
79 | GKKKKAKKAEVRKARAKASDRAKAKAKAAGPSRASKKAAAPARAKSGDGGKDK | 21600
80 | MRDGKQGMREKKRKEEGESKSEKKNGKGGRMGKRGGKGKGRKREEQRRVGIEK | 28100
81 | AQEEFRTYIQEHLVAEQVIAADESSKDDHTIIQHFGRAPHVLWLLLVLMAIWL | 78200
82 | SWNAPSLTNSWDSPPGNRTGAVTIGDESINGSEMPDFSLDLVSNDRQTGLEAL | 32800
83 | KRPRKKKQQKAAAEEAAEPAGSGDEAAAPPEPKKRRKGKLRKEGDKNGNAAPA | 28500
